Experimental data from article PMC3174981.

Target: HIV-1 Gag polyprotein (p6 region) (HIV-1 (NL4-3))

HIV-1 Vpr L22E (from UniProt P12520 1-96) (natural protein)
% Vpr incorporation into virions relative to WT Vpr (western blot densitometry, Vpr band normalised to p24 CA): 20 % of WT
